Values of other authors in article PMC11988861, “Step Enzymatic Hydrolysis and In Silico Screening-Assisted Preparation of Bioactive Peptides from Abalone” (Foods, 2025).

Target: ACE (Homo sapiens, UniProt P12821)
Parameters: method as in PMID 35323475
Conditions: literature ACEi peptides from skipjack tuna muscle

Chain of ACE (P12821 30-1306, species assumed): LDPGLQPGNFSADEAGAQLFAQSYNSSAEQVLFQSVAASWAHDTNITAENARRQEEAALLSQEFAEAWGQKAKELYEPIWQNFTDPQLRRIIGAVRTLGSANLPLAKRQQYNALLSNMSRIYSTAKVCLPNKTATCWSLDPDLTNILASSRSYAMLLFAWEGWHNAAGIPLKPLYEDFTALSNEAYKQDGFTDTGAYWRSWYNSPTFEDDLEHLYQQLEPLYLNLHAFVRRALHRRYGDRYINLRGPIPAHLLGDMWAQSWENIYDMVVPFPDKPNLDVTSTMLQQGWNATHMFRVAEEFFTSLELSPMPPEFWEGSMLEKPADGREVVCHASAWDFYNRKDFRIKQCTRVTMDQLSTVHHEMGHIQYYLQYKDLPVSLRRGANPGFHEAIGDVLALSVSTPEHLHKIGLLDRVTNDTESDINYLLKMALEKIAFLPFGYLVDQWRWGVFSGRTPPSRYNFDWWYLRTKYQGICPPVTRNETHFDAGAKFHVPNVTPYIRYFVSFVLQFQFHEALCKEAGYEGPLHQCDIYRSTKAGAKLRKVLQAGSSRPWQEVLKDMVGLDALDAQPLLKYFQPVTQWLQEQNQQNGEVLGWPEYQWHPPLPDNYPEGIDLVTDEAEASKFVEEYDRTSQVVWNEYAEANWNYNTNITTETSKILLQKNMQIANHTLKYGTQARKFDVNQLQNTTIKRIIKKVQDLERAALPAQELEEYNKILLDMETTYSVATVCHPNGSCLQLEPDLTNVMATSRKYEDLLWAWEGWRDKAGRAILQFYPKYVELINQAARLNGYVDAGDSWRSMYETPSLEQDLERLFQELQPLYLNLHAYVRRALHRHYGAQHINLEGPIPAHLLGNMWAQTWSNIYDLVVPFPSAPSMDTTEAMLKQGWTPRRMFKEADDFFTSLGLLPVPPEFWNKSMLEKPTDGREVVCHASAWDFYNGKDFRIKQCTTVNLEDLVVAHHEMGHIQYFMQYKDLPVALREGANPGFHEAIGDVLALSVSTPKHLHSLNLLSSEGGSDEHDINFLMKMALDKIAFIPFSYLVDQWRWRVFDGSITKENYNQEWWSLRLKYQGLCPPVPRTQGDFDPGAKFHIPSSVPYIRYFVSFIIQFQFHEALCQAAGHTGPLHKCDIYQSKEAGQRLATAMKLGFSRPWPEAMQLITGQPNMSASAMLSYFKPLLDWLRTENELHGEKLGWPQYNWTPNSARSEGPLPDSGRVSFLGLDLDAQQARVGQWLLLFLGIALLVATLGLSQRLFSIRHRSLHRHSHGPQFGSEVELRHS

- ACEi IC50: 280 µg/mL
Substance: VDRYF
